Measured values: PMC9189065 (Cell, 2022)

Experiments:
[1] = molecular target: mouse METAP1(1-59) (mouse, UniProt Q8BP48 1-59); assay: other fluorescence titration
[2] = molecular target: mouse METAP1(1-79) (mouse, UniProt Q8BP48 1-79); assay: other fluorescence titration
[3] = molecular target: zebrafish MBP-Metap1, full length (zebrafish, UniProt Q4QRK0 1-386); assay: pull-down

| Binder | Kd [1] [nM] | stoichiometry N [1] | Kd [2] [nM] | stoichiometry N [2] | binding result [3] |
| --- | --- | --- | --- | --- | --- |
| Ac-MEDEDECPELVPIKEKPSG-NH2 [zebrafish Zng1 N-terminal peptide, synthetic] | ~100 | 1 | ~100 | 1 |  |
| Ac-EEDPAEEDCPELVPIETTQSE-NH2 [human ZNG1 N-terminal peptide, synthetic] | ~100 | 1 | ~100 | 1 |  |
| zebrafish Zng1, full length, purified (natural protein) not shown |  |  |  |  | binds |
